Common to all, as to test: SPR
One assay addresses GST-Bcl-2ΔTM S70E (UniProt P10415 1-219, S70E).
Assay [1] deals with Bcl-2ΔTM-His6 (unphosphorylated) (UniProt P10415 1-219).
The next assay has as its target GST-Bcl-2ΔTM (wt) (UniProt P10415 1-219).

Bcl-2ΔTM-His6 (unphosphorylated), sequence (P10415 1-219, stated change not applied): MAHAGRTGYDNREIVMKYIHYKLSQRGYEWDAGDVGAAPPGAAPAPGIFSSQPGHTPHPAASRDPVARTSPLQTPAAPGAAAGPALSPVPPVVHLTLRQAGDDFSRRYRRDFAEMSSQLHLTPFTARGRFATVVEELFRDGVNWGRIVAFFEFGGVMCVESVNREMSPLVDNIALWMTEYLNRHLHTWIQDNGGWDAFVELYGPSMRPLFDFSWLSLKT
GST-Bcl-2ΔTM (wt), sequence (P10415 1-219, stated change not applied): as above
GST-Bcl-2ΔTM S70E, sequence (P10415 1-219 S70E): as the sequence (P10415 1-219, stated change not applied) above, with S70E counted along it

B1: His6-tagged BakΔTM (domain or fragment, UniProt Q16611 1-186, looked up)
chain: MASGQGPGPPRQECGEPALPSASEEQVAQDTEEVFRSYVFYRHQQEQEAEGVAAPADPEMVTLPLQPSSTMGQVGRQLAIIGDDINRRYDSEFQTMLQHLQPTAENAYEYFTKIATSLFESGINWGRVVALLGFGYRLALHVYQHGLTGFLGQVTRFVVDFMLHHCIARWIAQRGGWVAALNLGNG
For B1, the binding result in the assay with GST-Bcl-2ΔTM S70E is recorded as “binds”. Besides, in assay [1], the Kd (as a rule, the constant that tells how readily two partners part at equilibrium) was roughly 0.15 µM. In the case of RPEIWIAQELRRIGDEFNAYYARRVF [26-mer Bim BH3 peptide], in the assay with GST-Bcl-2ΔTM (wt), the Kd is 0.007 µM.

These data come from PMC3910374 (Cancer research, 2013).
